Source: patent publication US20120263644A1

Columns and labels:
[1] = target: constitutively active LFA-1 expressed on Jurkat T-cell line J-β2.7/LFA-1Δ; test: cell-based or functional assay
[2] = target: leukocyte function antigen-1 (LFA-1), composed of CD11a and CD18, on human white blood cells (human) (UniProt P20701); test: cell-based or functional assay
Sequence of leukocyte function antigen-1 (LFA-1), composed of CD11a and CD18, on human white blood cells (human) (P20701 26-1170, chain 1 of 2): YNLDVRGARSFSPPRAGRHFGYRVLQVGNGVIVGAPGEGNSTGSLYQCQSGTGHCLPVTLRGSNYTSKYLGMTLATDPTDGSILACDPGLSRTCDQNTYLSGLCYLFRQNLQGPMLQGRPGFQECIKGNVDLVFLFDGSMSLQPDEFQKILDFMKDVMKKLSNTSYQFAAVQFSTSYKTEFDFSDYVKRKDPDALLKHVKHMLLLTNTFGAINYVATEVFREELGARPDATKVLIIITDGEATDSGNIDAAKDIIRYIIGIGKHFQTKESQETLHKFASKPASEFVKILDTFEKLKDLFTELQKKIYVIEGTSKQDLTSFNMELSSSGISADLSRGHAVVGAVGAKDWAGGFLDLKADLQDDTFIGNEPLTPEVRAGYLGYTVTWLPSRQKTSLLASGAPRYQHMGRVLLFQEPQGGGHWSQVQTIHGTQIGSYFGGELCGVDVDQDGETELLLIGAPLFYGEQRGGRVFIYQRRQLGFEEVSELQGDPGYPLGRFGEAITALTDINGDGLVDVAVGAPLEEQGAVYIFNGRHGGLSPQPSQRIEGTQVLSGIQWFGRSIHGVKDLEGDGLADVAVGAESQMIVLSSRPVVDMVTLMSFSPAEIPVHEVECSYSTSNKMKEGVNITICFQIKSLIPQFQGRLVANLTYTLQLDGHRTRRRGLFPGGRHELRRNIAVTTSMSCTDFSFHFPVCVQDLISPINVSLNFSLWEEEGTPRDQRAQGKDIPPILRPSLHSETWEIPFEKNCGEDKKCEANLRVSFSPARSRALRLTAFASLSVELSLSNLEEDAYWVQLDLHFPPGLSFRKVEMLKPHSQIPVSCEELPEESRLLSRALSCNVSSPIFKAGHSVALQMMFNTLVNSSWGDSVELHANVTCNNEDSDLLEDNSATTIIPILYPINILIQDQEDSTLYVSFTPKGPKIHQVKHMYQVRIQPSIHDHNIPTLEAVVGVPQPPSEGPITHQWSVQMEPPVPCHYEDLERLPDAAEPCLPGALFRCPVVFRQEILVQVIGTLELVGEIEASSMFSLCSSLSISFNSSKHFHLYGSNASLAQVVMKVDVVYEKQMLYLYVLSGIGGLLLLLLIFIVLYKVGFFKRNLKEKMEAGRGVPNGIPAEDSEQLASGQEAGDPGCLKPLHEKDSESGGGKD
Sequence of leukocyte function antigen-1 (LFA-1), composed of CD11a and CD18, on human white blood cells (human) (P05107 23-769, chain 2 of 2, further chain): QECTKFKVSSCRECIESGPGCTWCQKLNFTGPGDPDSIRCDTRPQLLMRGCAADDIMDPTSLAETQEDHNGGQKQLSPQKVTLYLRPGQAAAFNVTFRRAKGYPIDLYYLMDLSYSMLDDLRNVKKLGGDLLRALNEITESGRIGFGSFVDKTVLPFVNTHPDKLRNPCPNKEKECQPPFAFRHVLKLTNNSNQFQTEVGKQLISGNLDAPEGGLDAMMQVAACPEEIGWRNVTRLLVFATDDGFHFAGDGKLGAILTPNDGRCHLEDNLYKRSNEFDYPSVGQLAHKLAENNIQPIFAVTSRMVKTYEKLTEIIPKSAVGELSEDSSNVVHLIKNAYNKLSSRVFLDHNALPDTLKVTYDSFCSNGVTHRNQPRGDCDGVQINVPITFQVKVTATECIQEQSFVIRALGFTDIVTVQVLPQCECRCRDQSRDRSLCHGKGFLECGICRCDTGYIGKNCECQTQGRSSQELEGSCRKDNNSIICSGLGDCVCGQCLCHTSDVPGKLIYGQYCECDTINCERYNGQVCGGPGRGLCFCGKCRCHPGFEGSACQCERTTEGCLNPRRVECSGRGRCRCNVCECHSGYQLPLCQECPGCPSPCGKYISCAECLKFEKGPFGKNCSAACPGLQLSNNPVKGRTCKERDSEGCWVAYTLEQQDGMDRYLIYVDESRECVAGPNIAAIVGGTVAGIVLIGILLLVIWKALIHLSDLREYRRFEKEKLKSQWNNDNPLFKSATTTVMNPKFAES

B1: leukotoxin (LtxA) of Aggregatibacter actinomycetemcomitans strain NJ4500 (protein)
chain: MATTSLLNTKQQAAQFANSVADRAKENIDAAKEQLQKALDKLGKTGKKLTLYIKNYKKGNGLTALIKAAQKLGIEVYHEGKDGPALTNGILNTGKKLLGLTERGLTLFAPELDKWIQGNKHLSNSVGSTGNLTKAIDKVQSVLGTLQAFLNTAFSGMDLDALIKARQNGKNVTDVQLAKASLNLINELIGTISSITNNVDTFSKQLNKLGEALGQVKHFGSFGDKLKNLPKLGNLGKGLGALSGVLSAISAALLLANKDADTATKAAAAAELTNKVLGNIGKAITQYLIAQRAAAGLSTTGPVAGLIASVVSLAISPLSFLGIAKQFDRARMLEEYSKRFKKFGYNGDSLLGQFYKNTGIADAAITTINTVLSAIAAGVGAASAGSLVGAPIGLLVSAITSLISGILDASKQAVFEHIANQLADKIKAWENKYGKNYFENGYDARHSAFLEDSLKLFNELREKYKTENILSITQQGWDQRIGELAGITRNGDRIQSGKAYVDYLKKGEELAKHSDKFTKQILDPIKGNIDLSGIKGSTTLTFLNPLLTAGKEERKTRQSGKYEFITELKVKGRTDWKVKGVPNSNGVYDFSNLIQHAVTRDNKVLEARLIANLGAKDDYVFVGSGSTIVNAGDGYDVVDYSKGRTGALTIDGRNATKAGQYKVERDLSGTQVLQETVSKQETKRGKVTDLLEYRNYKLDYYYTNKGFKAHDELNSVEEIIGSTLRDKFYGSKFNDVFHGHDGDDLIYGYDGDDRLYGDNGNDEIHGGQGNDKLYGGAGNDRLFGEYGNNYLDGGEGDDHLEGGNGSDILRGGSGNDKLFGNQGDDLLDGGEGDDQLAGGEGNDIYVYRKEYGHHTITEHSGDKDKLSLANINLKDVSFERNGNDLLLKTNNRTAVTFKGWFSKPNSSAGLDEYQRKLLEYAPEKDRARLKRQFELQRGKVDKSLNNKVEEIIGKDGERITSQDIDNLFDKSGNKKTISPQELAGLIKNKGKSSSLMSSSRSSSMLTQKSGLSNDISRIISATSGFGSSGKALSASPLQTNNNFNSYANSLATTAA
sensitivity to LtxA-mediated toxicity, J-β2.7/LFA-1Δ cells against J-β2.7/LFA-1 wt cells [1]: 10 times | 50% effective dose (ED50) of LtxA against gp120-treated CD4 T cells, cell viability by cellular ATP after 20 hrs [2]: 0.367 µg/mL | ED50 of LtxA against mutant gp120-treated CD4 T cells, cell viability by cellular ATP after 20 hrs [2]: 0.44 µg/mL | ED50 of LtxA against untreated CD4 T cells, cell viability by cellular ATP after 20 hrs [2]: 0.437 µg/mL | IC50 of inhibition of proliferation of Jurkat cells after 72 hours (CellTiter Glo) [2]: 0.25 µg/mL | percent of CD3+ T lymphocytes expressing high levels of LFA-1 after LtxA treatment of PBMCs (approximately 11% before), flow cytometry [2]: 0.4% | percent of CD4 T cells activated by surface-bound anti-CD3 and anti-CD28 killed by LtxA at 390 and 780 ng/ml [2]: 100% | percent of untreated CD4 T cells susceptible to LtxA at 390 and 780 ng/ml [2]: 50%
